Source: US20020142964A1 (published 2002)
Residue numbers refer to the chain shown, from its start. Numbers in names are those of the source.

T1: human G-CSF receptor (human, UniProt Q99062 25-836)
T1 sequence (looked up): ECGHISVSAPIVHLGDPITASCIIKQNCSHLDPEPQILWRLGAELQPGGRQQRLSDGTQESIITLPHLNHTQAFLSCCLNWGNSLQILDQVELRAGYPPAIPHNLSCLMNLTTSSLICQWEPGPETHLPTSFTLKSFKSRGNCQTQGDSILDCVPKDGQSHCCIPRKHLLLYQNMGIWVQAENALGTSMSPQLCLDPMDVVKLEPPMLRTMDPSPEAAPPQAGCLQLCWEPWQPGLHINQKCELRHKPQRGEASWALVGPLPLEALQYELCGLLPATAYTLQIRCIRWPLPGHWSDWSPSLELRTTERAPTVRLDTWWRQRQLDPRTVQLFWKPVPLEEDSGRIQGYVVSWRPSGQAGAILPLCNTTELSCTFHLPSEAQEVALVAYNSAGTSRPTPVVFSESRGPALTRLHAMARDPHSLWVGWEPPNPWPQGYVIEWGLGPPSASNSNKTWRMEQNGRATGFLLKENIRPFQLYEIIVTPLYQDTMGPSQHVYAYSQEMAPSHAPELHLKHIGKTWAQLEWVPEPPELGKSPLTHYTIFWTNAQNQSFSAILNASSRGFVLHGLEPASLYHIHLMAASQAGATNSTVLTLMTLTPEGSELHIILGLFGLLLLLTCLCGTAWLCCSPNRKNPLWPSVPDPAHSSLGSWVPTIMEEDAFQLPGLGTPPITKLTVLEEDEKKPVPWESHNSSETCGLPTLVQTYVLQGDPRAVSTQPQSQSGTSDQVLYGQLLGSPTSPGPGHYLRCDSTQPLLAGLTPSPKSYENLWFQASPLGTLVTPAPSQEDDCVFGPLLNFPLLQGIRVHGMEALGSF

B1: non-conjugated hG-CSF (Neupogen®) (ligand)
chain: TPLGPASSLPQSFLLKCLEQVRKIQGDGAALQEKLCATYKLCHPEELVLLGHSLGIPWAPLSSCPSQALQLAGCLSQLHSGLFLYQGLLQALEGISPELGPTLDTLQLDVADFATTIWQQMEELGMAPALQPTQGAMPAFASAFQRRAGGVLVASHLQSFLEVSYRVLRHLAQP
B2: Single-chain G-CSF dimer (K16R K34R K40R)copy 1,2 (ligand)
chain: TPLGPASSLPQSFLLRCLEQVRKIQGDGAALQERLCATYRLCHPEELVLLGHSLGIPWAPLSSCPSQALQLAGCLSQLHSGLFLYQGLLQALEGISPELGPTLDTLQLDVADFATTIWQQMEELGMAPALQPTQGAMPAFASAFQRRAGGVLVASHLQSFLEVSYRVLRHLAQPTPLGPASSLPQSFLLRCLEQVRKIQGDGAALQERLCATYRLCHPEELVLLGHSLGIPWAPLSSCPSQALQLAGCLSQLHSGLFLYQGLLQALEGISPELGPTLDTLQLDVADFATTIWQQMEELGMAPALQPTQGAMPAFASAFQRRAGGVLVASHLQSFLEVSYRVLRHLAQP
B3: Single-chain G-CSF dimer (K16R K34R K40R)copy 1,2 PEG5000 (ligand)
chain: B2 chain
modifications: SPA-PEG 5000 covalently linked to the available PEGylation sites; number and positions not stated
B4: Single-chain G-CSF dimer (K16R)copy 1,2 (ligand)
chain: B2 chain with R34K, R40K, R208K, R214K
B5: Single-chain G-CSF dimer PEG20000 (ligand)
chain: B2 chain with R16K, R34K, R40K, R190K, R208K, R214K
modifications: SPA-PEG 20000 covalently linked to the available PEGylation sites; number and positions not stated
B6: Single-chain G-CSF dimer PEG5000 (ligand)
chain: B2 chain with R16K, R34K, R40K, R190K, R208K, R214K
modifications: SPA-PEG 5000 covalently linked to the available PEGylation sites; number and positions not stated
B7: Single-chain G-CSF dimer (K16R K34R)copy 1,2 (ligand)
chain: B2 chain with R40K, R214K
B8: Single-chain G-CSF dimer (K16R K34R)copy 1,2 PEG5000 (ligand)
chain: B2 chain with R40K, R214K
modifications: SPA-PEG 5000 covalently linked to the available PEGylation sites; number and positions not stated
B9: Single-chain G-CSF dimer (ligand)
chain: B2 chain with R16K, R34K, R40K, R190K, R208K, R214K
B10: Single-chain G-CSF dimer (K16R K34R)copy 1,2 PEG12000 (ligand)
chain: B2 chain with R40K, R214K
modifications: SPA-PEG 12000 covalently linked to the available PEGylation sites; number and positions not stated
B11: Single-chain G-CSF dimer PEG12000 (ligand)
chain: B2 chain with R16K, R34K, R40K, R190K, R208K, R214K
modifications: SPA-PEG 12000 covalently linked to the available PEGylation sites; number and positions not stated
B12: Single-chain G-CSF dimer (K16R K34R K40R)copy 1,2 PEG12000 (ligand)
chain: B2 chain
modifications: SPA-PEG 12000 covalently linked to the available PEGylation sites; number and positions not stated

The binders below were run against T1, human G-CSF receptor (assay: cell-based or functional assay).

Row | Binder | EC50, luciferase reporter assay in BaF3/hGCSF-R/pfos-lux cells (Primary assay 2)
1 | B1 | 0.03 nM

Target: T1, human G-CSF receptor
Experiment: cell-based or functional assay
Remark: another data set of the same source

Row | Binder | Specific activity (% of Neupogen®), from EC50 in luciferase reporter assay
2 | B2 | 300 % of Neupogen®
3 | B3 | 10 % of Neupogen®
4 | B4 | 135 % of Neupogen®
5 | B5 | 25 % of Neupogen®
6 | B6 | 120 % of Neupogen®
7 | B7 | 329 % of Neupogen®
8 | B8 | 19 % of Neupogen®
9 | B9 | 214 % of Neupogen®
10 | B10 | 8 % of Neupogen®
11 | B11 | 62 % of Neupogen®
12 | B12 | 10 % of Neupogen®
